This note sets out measurements from publication PMC10359594.

Like-named read-outs stand apart in the source and are kept apart here.

The target of one series is SAMHD1 113-626 R451E (Homo sapiens, UniProt Q9Y3Z3 113-626, R451E). The series is described as follows: fluorescence anisotropy. In general terms: In fluorescence polarisation assays a small probe gives low polarisation when free and higher when bound to something large.
Series [1] addresses T1, SAMHD1 113-626 (HD domain) (Homo sapiens, UniProt Q9Y3Z3 113-626). The series is described as follows: crystal structure.
In series [2] the target is T1, SAMHD1 113-626 (HD domain). In words: crystal structure. The source holds these as a separate data set.
Another series has as its target SAMHD1 C522A (Homo sapiens, UniProt Q9Y3Z3 1-626, C522A). In words: fluorescence anisotropy.
For series [3], the target named is T2, SAMHD1 WT (Homo sapiens, UniProt Q9Y3Z3 1-626). In words: fluorescence anisotropy.
Series [4] has as its target T2, SAMHD1 WT. The series is described as follows: fluorescence anisotropy. The source holds these as a separate data set.

T1 sequence (Q9Y3Z3 113-626): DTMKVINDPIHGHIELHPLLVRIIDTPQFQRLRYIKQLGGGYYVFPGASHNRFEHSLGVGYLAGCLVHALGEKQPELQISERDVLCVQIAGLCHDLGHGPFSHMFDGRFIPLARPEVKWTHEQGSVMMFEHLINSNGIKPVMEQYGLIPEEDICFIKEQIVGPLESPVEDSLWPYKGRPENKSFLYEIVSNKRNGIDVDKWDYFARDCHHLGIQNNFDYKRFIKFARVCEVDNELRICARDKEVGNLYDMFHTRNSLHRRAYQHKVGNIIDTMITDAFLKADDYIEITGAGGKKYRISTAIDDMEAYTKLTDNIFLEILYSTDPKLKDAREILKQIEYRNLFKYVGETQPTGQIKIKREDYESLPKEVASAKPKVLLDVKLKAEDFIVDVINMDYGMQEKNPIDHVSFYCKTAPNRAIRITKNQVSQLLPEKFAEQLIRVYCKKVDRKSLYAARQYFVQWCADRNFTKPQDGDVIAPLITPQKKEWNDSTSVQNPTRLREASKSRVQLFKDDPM
T2 sequence (Q9Y3Z3 whole entry): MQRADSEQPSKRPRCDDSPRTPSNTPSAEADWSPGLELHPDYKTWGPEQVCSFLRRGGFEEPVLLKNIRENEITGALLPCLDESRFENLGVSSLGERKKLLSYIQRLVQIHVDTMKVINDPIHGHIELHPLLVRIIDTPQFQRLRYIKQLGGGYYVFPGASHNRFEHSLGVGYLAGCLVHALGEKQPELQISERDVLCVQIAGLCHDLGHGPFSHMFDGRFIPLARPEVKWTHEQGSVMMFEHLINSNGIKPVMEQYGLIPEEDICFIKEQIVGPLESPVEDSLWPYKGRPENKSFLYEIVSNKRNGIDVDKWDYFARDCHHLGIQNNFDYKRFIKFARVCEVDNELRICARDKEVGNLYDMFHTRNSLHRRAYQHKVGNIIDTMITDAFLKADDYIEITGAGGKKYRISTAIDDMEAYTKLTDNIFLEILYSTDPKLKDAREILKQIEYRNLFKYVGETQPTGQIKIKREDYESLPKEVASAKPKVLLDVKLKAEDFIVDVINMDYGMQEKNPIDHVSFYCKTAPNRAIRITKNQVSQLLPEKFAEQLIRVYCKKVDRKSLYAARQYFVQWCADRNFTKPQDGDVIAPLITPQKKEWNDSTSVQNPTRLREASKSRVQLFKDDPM
SAMHD1 C522A, sequence (Q9Y3Z3 whole entry C522A): as the sequence (Q9Y3Z3 whole entry) above, with C522A counted along it
SAMHD1 113-626 R451E, sequence (Q9Y3Z3 113-626 R451E): as the sequence (Q9Y3Z3 113-626) above, with R339E counted along it

With GACAGTGTTGAGACAGGACCAGACAGGTAG (ssDNA) [ssDNA 30mer], the binding result with SAMHD1 113-626 R451E is on record as “no binding”.
On to CATTG (ssDNA) [CATTG 5mer], for which, in series [1], the binding result is “binds”.
For the molecule CATGT (ssDNA) [CATGT 5mer], the binding result in series [2] is on record as “binds”.

B1: dsDNA 30mer (dsDNA)
DNA 1: GACAGTGTTGAGACAGGACCAGACAGGTAG
DNA 2: CTACCTGTCTGGTCCTGTCTCAACACTGTC
With B1, in the series with SAMHD1 C522A, the binding result is “no binding”.

B2: 3' overhang (mixed)
DNA 1: TGGAGAATCCCGGTGCCGAGGCCGCTCAATTGGTCGTAGACAGCTCTAGCACCGCTT
DNA 2: TGAGCGGCCTCGGCACCGGGATTCTCCA
As to B2, in the series with SAMHD1 WT [3], the binding result is “binds”.

B3: 3' fork (mixed)
DNA 1: TGGAGAATCCCGGTGCCGAGGCCGCTCAATTGGTCGTAGACAGCTCTAGCACCGCTT
DNA 2: AATTGTGAGCGGCCTCGGCACCGGGATTCTCCA
Take B3: the binding result with SAMHD1 WT [4] is “binds”.
